This data set can be described thus: label from the status in PepcDB records.
“MSSFAELLQQGASQAWLYFPSAILLGALHGLEPGHSKTMMAAFIVAIRGTVKQAVLLGLASTLSHTAVVWLVAMAGMYLGQNLNAETTEPYFQLASAAIIITIALWMLWRTWRGEQMWRFEEGDDLQHDYHHHDEMQRIDTGHGRIELSIFEEGVPPRWRLNILTGHAWSAAEMSLLTTRPDGLAQQFRFVDRGDYLESVDEIPEPHEFTARLSLGHAGHSHDYDLEFHEHGHGHGHDHAELEGLELSLEGYQDAHERAHANDIRKRFSNRNVTTGQIILFGLTGGLIPCPAAITVLLLCLQVKEVALGAVLVLCFSIGLAITLVTVGAAAAIGARQASNRWPWLGAVARRAPYLSSLLIIGVGIYVGVHGWIGLNA”: the protein production entry was “failed”.

In the case of “MSSFKGIFGFNRVELKDLLISSIAIAIVVVWPRGFPTFNIGFFLHFIAALLTVGIAFIFHELAHRTVARHFGAWSEFRAWYEGLALAIFLKIILGFTFIAPGAVYIHKDYLKTKENGLISVAGPLTNIVLAVLFMILPIPAIYYSGYYVDISSYGYFVNIFLAMFNLLPIYPFDGSKVMRWNFLVWAVLFIPLIVLYFFV”, the protein production result is recorded as “failed”.

On to “MSSGKDFFVHSHALCESENIGKDSRVWAFAHILPGARLGSECNVCDNVFIENDVIIGDRVTLKCGVQVWDGITIEDDVFIGPNATFTNDLFPRSKVYPQTFARTIIRKGASLGANCTILPGITIGINAMVGAGAVVTRSVPPNAIVVGNPAKIIGYVDAKPVNANSETRAEQKAPGVTATSVKNVTLHTMNEVADIRGSLSAGEFERSVPFKTERYFLVYDVPTAETRGEHAHRICHQFLVAVKGSVHVVADDGVNREEFILDKPNQGIHLPPMTWGIQYRYSQDAVLLVFASHYYDAGDYIRNYEEFKSLIANAELEHHHHHH”, for which the protein production entry is reported as “not failed”.

In the case of “MSSGNVFLLSIASSAGMNIRLVHRLIAASCAVVLCSTVGIPAGRAGDPFRSSNPQPISASTAAAFTAAFQQGNYPAAEQALQQALRQDSSDPLVFALAGSLAFAQQNRQAFADYARQTKSKAQAIAPQQPLRSQLYIAVGELMMAASTLLPQLTGDGGVPLAAVPQALQSLQTVYGSLRAAAQINPNDPELNLVQGFVDLIVATNLPLANPSGAIAKLEKASPRYLADRGIALGLRNLKRYPEAIQYVDRAIAAAPENPELRYLKAQILVEQSKATGDANLRRAAAAEFQKALAKSSQLPQPLVWQLFFEACNNQKTFDNRGQDCVSLRDQVTQAPGPWGPATLPPL”, the protein production entry was “failed”.

Regarding “MSSIGYSRRFRLFRRGEVTVLEVMAGQKAYPDTLRYLLVPEGRPQPSGFVGYTVIRTPVKRIAVFSTTHIGFLDMLGRSDGIIGVSRPEFVNTPAVRSRIRSGAIKAIGMPFSPDVEALLNLEPDLVIAPALPAARKTDYQALVQAGIPVLVVAEWLEPSPLGRAEWIKLFGALVGKEKLARERFAAIESSYLKIAALSRNLPNRPTVLTGLPVKDAWYVPTGGSYVAAMLRDAGASYHWRDLPGTGSVPLTIEAVWPVALEAEYWLNTGTVSTLDELLAVDSRFGQMRSVRERRVWNNNRLVNAAGGNAYWESGVVRPDLILKDLVMILHPGLLRAHGIGEGELTFFQEVKLEHHHHHH”, the protein production entry is given as “not failed”.

As to “MSSKGEGSSSTAEREVKKQVASVIPVTRKLVKTMAAKAIISALTPSGCGRHSDSTGDGKELKPFKKKEGSVIPKERELVKTKAAKAIFSLFRPSCDGKQSSQPSRDGDGDHDGKRVYPTRY”, the protein production result was “failed”.

Consider “MSSMGDQRGTRVYVGNLTDKVKKDDLEGEFTKYGKLNSVWIAFNPPGFAF”, for which the protein production entry is listed as “failed”.

In the case of “MSSNECFKCGRSGHWARECPTGGGRGRGMRSRGRGGFTSDRGFQFVSSSLPDICYRCGESGHLAKDCDLQEDACYNCGRGGHIAKDCKEPKREREQCCYNCGKPGHLARDCDHADEQKCYSCGEFGHIQKDCTKVKCYRCGETGHVAINCSKTSEVNCYRCGESGHLARECTIEATA”, the protein production entry is recorded as “not failed”.

Turning to “MSSPATTITFFFFFTLSSFFYITSSLQNNNNNKHTATVNSLNIPSAAAEITLVNPKLPPRSLSLTSSKKFEGSSNLVHLRYHMGPVLSSSPINIYVIWYGQWSRPHKSLIRDFLNSISDAKAPSPSVSEWWRTASLYTDQTGSNVSRSVLIAGEYSDSKYSHGQHLTRLTIQEVIASAARSASFPVDHKNGMYLVLTSHDVTMQDFCRAVCGFHYFTFPSMVGYTMPYAWVGQSGKQCPEVCAYPFALPGYMGHGGPGELRPPNGETGVDGMVSVIGHELAEVVSNPLINAWYAGEDPTAPTEIGDLCEGLYGSGGGGGYIGQVMRDREGKTFNMNGKGGRKFLVQWIWNPNLKACSGPNSVD”, the protein production result is “failed”.

Consider “MSSPVISPETKTGKKILLAAPRGYCAGVDRAVETVERALEEYGAPIYVRKEIVHNRYVVDTLAEKGAIFVNEASEAPEGANMVFSAHGVSPMVHEEAAAKNIKAIDAACPLVTKVHKEVQRFDKQGFHILFIGHEGHEEVEGTMGHSVEKTHLVDGVAGIATLPEFLNDEPNLIWLSQTTLSVDETMEIVRELKVKFPQLQDPPSDDICYATQNRQVAVKAIAERCELMIVVGSRNSSNSVRLVEVAKQNGADNAYLVDYAREIDPAWFEGVETIGISSGASVPEILVQGVIERLAEFGYDDVEEVTSAAEKIVFALPRVLRHKN”, for which the protein production result is “not failed”.

As for “MSSPYILVLYYSRHGATAEMARQIARGVEQGGFEARVRTVPAVSTECEAVAPDIPAEGALYATLEDLKNCAGLALGSPTRFGNMASPLKYFLDGTSSLWLTGSLVGKPAAVFTSTASLHGGQETTQLSMLLPLLHHGMLVLGIPYSEPALLETRGGGTPYGASHFAGADGKRSLDEHELTLCRALGKRLAETAGKLGS”, the protein production entry was “not failed”.

As to “MSSRAKRLTHLASLPSMSRALLKKILHFDETLTVIFKQSHVQLSETYGLSTKKARHLYEHLRRVSTDFWSEYYEKKQIVPVTIFDKGYPNLLKEIYDPPFVLFCRGRMNTLYSEKRLAIVGTRKTSTTGLKSLELLIPPLLQDGWVIVSGFAAGVDIHAHQLTVKNGGQTIAVLAHGHDNLYPAAHRPFAEHEMVSQLMISEYPPYVKPRPWQFPERNRIISGLCAGTVVIEAKEKSGSLITADQALEQGRDVFAVPGAITNQKAAGTNQLIQQGAKLIQRADDIIEELCGFQQSCDSDKFF”, the protein production result is “failed”.

“MSSRPSRGAARLAAILDALPDALVLVNANGTVVNANTIALEAFETPGTALVGRGLLDLLPEFDSRLIPGSMRRPDSMDPRGRTKPTRMVARRTDGSEFPVEVTSANLENGQQAYDGYGYTGD”: the protein production entry was “failed”.

In the case of “MSSSREENVYLAKLAEQAERYEEMVEFMEKVAKTVDTDELTVEERNLLSVAYKNVIGARRASWRIISSIEQKEESRGNDDHVSIIKDYRGKIETELSKICDGILNLLDSHLVPTASLAESKVFYLKMKGDYHRYLAEFKTGAERKEAAESTLVAYKSAQDIALADLAPTHPIRLGLALNFSVFYYEILNSPDRACSLAKQAFDEAISELDTLGEESYKDSTLIMQLLRDNLTLWNSDINDEAGGDEIKEASKHEPEEGKPAETGQ”, the protein production result is recorded as “failed”.

Take “MSSSSTSGLPATLPFEELAEAIKGRRSDYGHISGLQLDRFAPAEAWSSLPYRPVFVGDTETGVLHGGVVTAMLDESCGMAVQLALDGTRAIATLDLRIDYQKPATPGLDIKAHSVCYRTTRSIAFVRSTAYQESEDDPVATATACFMIGANRTNMLADRRMDSRSIPTLEAPEDPDGPFARSPFARCLGIRVNDDGTLTMPFSPKIIGNPILPAIHGGMTGAFLETTAIIGVARELGAAAPPKPIGLTINYLRSGRALDSFANVSIVKQGRRIVAFEARAWQDDADKPIATAFGHFMLRPTPGNDEE”: the protein production result is “failed”.

In the case of “MSSSTDTAMAAAEPIWLQHLAEQNIADFIPHRAPMILIDKIISHQQDALETEVLITPQSAYFDEHRQAVPNYVGIEYMAQSIAALAGVEAKLRHDKIRVGFLLGSRKLALHTAQYELNRRYRTQVKRLYQEESGLAVFDCQIYLLPEAQAQQTPLLVAEANVNVFQPQDTQAYIASSQQA”, the protein production entry was “failed”.
